Tests used:
CHO-K1/SpyC_C-BLA cells [1] = experiment: live-cell confocal microscopy of split β-lactamase complementation; format: cell-based, Chinese hamster; details: for cytosolic delivery and β-lactamase complementation signal by confocal microscopy: CHO-K1/SpyC_C-BLA cells, 4 µM protein, live cell confocal microscopy, Figure 3c–f
From the text: (a) Live-cell functional uptake can be measured when N-terminal β-lactamase (N-BLA), fused to a CPP sequence, penetrates the cell membrane to complement C-terminal β-lactamase protein (C-BLA) in the cytosol (step i). Expression of the split β-lactamase moieties as fusions with either SpyTag (CPP_N-BLA_SpyT) or SpyCatcher (SpyC_C-BLA) facilitates rapid formation of functional β-lactamase proteins through SpyT/SpyC ligation inside the cells (step ii). This internalization is detected after addition of dye substrate (step iii) through cleavage of cytosol-retained CCF2 (step iv), which is measured via a change in fluorescence signal from green (520 nm) to blue (450 nm). (b) Internalization of CPP_N-BLA_SpyT and β-lactamase complementation in CHO-K1/SpyC_C-BLA cells is dose-dependent, measured by CCF2 cleavage (increase in % blue viable cells as estimated by flow cytometry). […] Error bars represent standard error of the mean of two independent experiments (duplicate samples). […] Bar scale is 50 µm.
Successful complementation of β-lactamase was dose- and CPP-dependent, with a limit of detection of ≤1 µM of CPP_N-BLA_SpyT. β-Lactamase complementation and N-BLA fragment internalization was visually confirmed using live cell confocal microscopy in CHO-K1/SpyC_C-BLA cells treated with Phylomer CPP_N-BLA_SpyT proteins (Figure 3c–f). The fluorescence signal is detectable as early as 30 min (Figure S2a). Signal conversion over time was confirmed by imaging cells treated with 1746c27_N-BLA_SpyT at sequential time points (Figure S2b,c), thus completing validation of the split assay system.
Cells were seeded (CHO-K1, 37,500 cells/mL; T47D 37,500 cells/mL) onto 4-well ibiTreat chamber slides (Thermo Fisher Scientific) and incubated for 48 h at 37 °C, 5% CO2. The medium was removed and replaced with medium containing SpyC_BLA/CPP_SpyT conjugated or unconjugated SpyC_BLA proteins and cells were incubated for 2 h at 37 °C, 5% CO2. After incubation, the cells were washed to remove any SpyC_BLA protein that had not internalized, loaded with substrate CCF2-AM (2 µM final concentration in media containing 1% FCS), and incubated for 1 h at room temperature. Live cells were visualized through confocal microscopy. Images were collected using a Nikon C2 Confocal Microscope through a 40× differential interference contrast (DIC) objective after excitation by a 408 nm laser. Bar scales in images represent 50 µm or 14.6 µm (zoom magnification 3.4×).
Figure S2. Split β-lactamase assay time course.
Live cell confocal microscopy imaging the CPP-mediated cytosolic internalization of 1746c27_N-BLA_SpyT (8 µM) in CHO-K1/C-BLA cells at (a) 30 min, (b) 60 min, and (c) 120 min after addition of CCF2-AM dye. The β-lactamase complementation signal is detectable as early as 30 min and continues to convert over time. Repeated excitation over time results in photobleaching of the converted fluorescence resonance energy transfer (FRET) substrate. Bar scale is 50 µm. […]
(also on this page, place not known: De ad ( B) ( D) ( E) 1746c27_N-BLA_SpyT + CHO-K1/SpyC_C-BLA) […]

CHO-K1/SpyC_C-BLA cells [2] = experiment: split β-lactamase cytosolic delivery assay (CCF2-AM, flow cytometry); format: cell-based, Chinese hamster; details: CHO-K1/SpyC_C-BLA stable cells, blue fluorescent cells after 1 h, two independent experiments, duplicate samples, Figure 3b
From the text: SpyT/SpyC ligation enables specific covalent linkage of the split components when mixed together, thus reactivating β-lactamase activity. SpyC_C-BLA was selected for mammalian expression in stable cell lines, and N-BLA_SpyT was selected for CPP incorporation onto its N-terminus (CPP_N-BLA_SpyT). Constitutively expressed SpyC_C-BLA in the cytoplasm of stable cell lines can be complemented by CPP-delivered N-BLA_SpyT, thus forming functional β-lactamase.
In brief, CPP sequences are made as fusions to N-BLA_SpyT (CPP_N-BLA_SpyT, Figure 3a, step i). […] Cell penetrating peptide-dependent β-lactamase complementation and activity is detected by cleavage of the CCF2 substrate (Figure 3a, step iv). As in the full-length β-lactamase internalization assay, this reaction is measured as a shift in fluorescent signal from green to blue. […]
Successful complementation of β-lactamase was dose- and CPP-dependent, with a limit of detection of ≤1 µM of CPP_N-BLA_SpyT. β-Lactamase complementation and N-BLA fragment internalization was visually confirmed using live cell confocal microscopy in CHO-K1/SpyC_C-BLA cells treated with Phylomer CPP_N-BLA_SpyT proteins (Figure 3c–f). The fluorescence signal is detectable as early as 30 min (Figure S2a). […]

Row | Molecule | cytosolic delivery and β-lactamase complementation signal by confocal microscopy (CHO-K1/SpyC_C-BLA cells [1]) | β-lactamase complementation signal (% blue viable cells) (CHO-K1/SpyC_C-BLA cells [2]) | earliest time at which β-lactamase complementation signal is detectable (CHO-K1/SpyC_C-BLA cells [1]; 8 µM in CHO-K1/C-BLA cells, time after addition of CCF2-AM dye, imaged at 30, 60, 120 min, Figure S2) [min]
1 | N-BLA_SpyT: N-terminal β-lactamase fragment fused to SpyTag; No CPP negative control of split assay (protein) MGHHHHHHGATLEVLFQGPGGSQLHPETLVKVKDAEDQLGARVGYIELDLNSGKILESFRPEERFPMMSTFKVLLCGAVLSRIDAGQEQLGRRIHYSQNDLVEYSPVTEKHLTDGMTVRELCSAAITMSDNTAANLLLTTIGGPKELTAFLHNMGDHVTRLDRWEPELNEAIPNDERDTTMPAAMATTLRKLLTGGGSASGGSGTGATSGAHIVMVDAYKPTKGVDG | minimal evidence of internalization | negligible effect | 
2 | 1746c27_N-BLA_SpyT: phylomer CPP 1746c27 fused to N-terminal β-lactamase fragment and SpyTag (protein, left off: His6, internal (after the CPP, by the printed letters), state not stated, phylomer CPP 1746c27 fused to N-terminal β-lactamase fragment and SpyTag) MASKKKKQPPKPKKPKTQEKKKKQPPKPKRASSGSHHHHHHGTGAGSGHPETLVKVKDAEDQLGARVGYIELDLNSGKILESFRPEERFPMMSTFKVLLCGAVLSRIDAGQEQLGRRIHYSQNDLVEYSPVTEKHLTDGMTVRELCSAAITMSDNTAANLLLTTIGGPKELTAFLHNMGDHVTRLDRWEPELNEAIPNDERDTTTPAAMATTLRKLLTGGGSASGGSGTGATSGAHIVMVDAYKPTKGGTGGS | cytosolic delivery |  | 30
3 | 0084_N-BLA_SpyT: phylomer CPP 0084 fused to N-terminal β-lactamase fragment and SpyTag (protein, left off: His6, internal (after the CPP, by the printed letters), state not stated, phylomer CPP 0084 fused to N-terminal β-lactamase fragment and SpyTag) MASRKQKSLQTKLAENPPVPRKKRQSRPRWKQWLQKASSGSHHHHHHGTGAGSGHPETLVKVKDAEDQLGARVGYIELDLNSGKILESFRPEERFPMMSTFKVLLCGAVLSRIDAGQEQLGRRIHYSQNDLVEYSPVTEKHLTDGMTVRELCSAAITMSDNTAANLLLTTIGGPKELTAFLHNMGDHVTRLDRWEPELNEAIPNDERDTTTPAAMATTLRKLLTGGGSASGGSGTGATSGAHIVMVDAYKPTKGGTGGS | cytosolic delivery |  | 
4 | 1746_N-BLA_SpyT: phylomer CPP 1746 fused to N-terminal β-lactamase fragment and SpyTag (protein, left off: His6, internal (after the CPP, by the printed letters), state not stated, phylomer CPP 1746 fused to N-terminal β-lactamase fragment and SpyTag) MASPLKPKKPKTQEKKKKQPPKPKKPKTQEKKKKQPPKPKRASSGSHHHHHHGTGAGSGHPETLVKVKDAEDQLGARVGYIELDLNSGKILESFRPEERFPMMSTFKVLLCGAVLSRIDAGQEQLGRRIHYSQNDLVEYSPVTEKHLTDGMTVRELCSAAITMSDNTAANLLLTTIGGPKELTAFLHNMGDHVTRLDRWEPELNEAIPNDERDTTTPAAMATTLRKLLTGGGSASGGSGTGATSGAHIVMVDAYKPTKGGTGGS | cytosolic delivery |  | 
